Earlier results, collected in article PMC3476528.

Target: histone H3 (Homo sapiens) (UniProt P68431)

CHD4 PHD2, sequence (Q14839 449-496): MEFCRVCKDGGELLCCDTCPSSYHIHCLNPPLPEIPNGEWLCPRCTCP

## CHD4 PHD2 (from UniProt Q14839)
  Kd: 18 µM
